Assay results taken from publication PMC7712654 (2020).

B1: α-CT coiled-coil domain fused with HIS tag (α-CT-His), fluorescently labeled (domain or fragment)
chain: INMKKREAVFSDSRKLQGEVDKLKEQILKAKETSTEAEPSSEVLNEMIEKLKSEIDDEYTEAAIAVGLEERLTAMREEFSKASSEEHLMHPVLIEKIEKLKEEFNTRLTDAPNYESLKSKLNMLRDFSRAKAASEATSLKKEINKRFQEAVDRPEIREKVEAIKAEVASSGASSFDELPDALKEKVLKTKGEVEAEMAGVLKSMGLELDAVKQNQKDTAEQIYAANENLQEKLEKLNQEITSKIEEVVRTPEIKSMVELLKVETAKASKTPGVTEAYQKIEALEQQIKQKIAEALNTSGLQEKQDELEKELAAARELAAEESDGSVKEDDDDDEDSSESGKSEMVNPSFA
modifications: fluorescently labeled using His-tag labeling kit (NanoTemper, MO-L008)
B2: coiled-coil domain of CTI1 fused with HIS tag (domain or fragment)
chain: PQISKAIAGADRKDLMRKLPKFIYDEEKALEKTRKVLAEKIAQLNSAIDDVSSQLKSEDTPNGAALSTDEIEATA

Columns and labels:
[1] = target: coiled-coil domain of CTI3 fused with HIS tag (Arabidopsis thaliana); test: MST
[2] = target: B1; test: MST

Row | Kd [1] [nM] | Kd [2] [nM] | Binder
1 | 114 | – | B1
2 | – | 14.8 | B2
